Assay results from paper PMC9482650, “Quantitative fragmentomics allow affinity mapping of interactomes” (Nature Communications, 2022).

T1: DFNB31_3, Q9P202
T1 sequence (Q9P202 811-907, limits assumed, looked up): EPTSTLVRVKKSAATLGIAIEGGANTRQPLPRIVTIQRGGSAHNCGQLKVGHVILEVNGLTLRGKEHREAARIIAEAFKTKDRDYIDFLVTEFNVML

T2: DLG3_2, Q92796
T2 sequence (Q92796 221-321, limits assumed, looked up): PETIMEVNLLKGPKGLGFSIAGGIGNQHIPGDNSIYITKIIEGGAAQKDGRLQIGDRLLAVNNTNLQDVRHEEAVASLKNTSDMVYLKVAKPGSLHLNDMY

T3: DVL3, Q92997
T3 sequence (Q92997 244-331, limits assumed, looked up): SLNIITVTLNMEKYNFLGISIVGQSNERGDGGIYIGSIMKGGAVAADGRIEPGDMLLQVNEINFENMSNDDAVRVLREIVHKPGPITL

T4: GRIP1_5, Q9Y3R0
T4 sequence (Q9Y3R0 568-668, limits assumed, looked up): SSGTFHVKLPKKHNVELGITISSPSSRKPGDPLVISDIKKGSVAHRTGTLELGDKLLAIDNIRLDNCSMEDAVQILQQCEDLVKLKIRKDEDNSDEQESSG

T5: LIN7C, Q9NUP9
T5 sequence (Q9NUP9 88-185, limits assumed, looked up): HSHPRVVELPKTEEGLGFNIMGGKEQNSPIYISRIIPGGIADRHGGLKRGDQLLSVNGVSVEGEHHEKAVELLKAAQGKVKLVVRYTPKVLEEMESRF

T6: LNX2_2, Q8N448
T6 sequence (Q8N448 334-432, limits assumed, looked up): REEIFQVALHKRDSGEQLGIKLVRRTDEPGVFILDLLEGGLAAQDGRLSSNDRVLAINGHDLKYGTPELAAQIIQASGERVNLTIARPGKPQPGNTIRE

T7: MPDZ_5, O75970
T7 sequence (O75970 695-796, limits assumed, looked up): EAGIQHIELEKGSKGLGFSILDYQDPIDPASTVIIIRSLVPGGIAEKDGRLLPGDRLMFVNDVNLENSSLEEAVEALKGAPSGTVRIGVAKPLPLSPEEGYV

T8: NHERF3_3, Q5T2W1
T8 sequence (Q5T2W1 238-333, limits assumed, looked up): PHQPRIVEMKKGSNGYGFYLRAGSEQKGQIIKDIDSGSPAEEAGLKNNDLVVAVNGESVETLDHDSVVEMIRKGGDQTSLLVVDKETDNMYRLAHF

T9: NHERF3_4, Q5T2W1
T9 sequence (Q5T2W1 373-468, limits assumed, looked up): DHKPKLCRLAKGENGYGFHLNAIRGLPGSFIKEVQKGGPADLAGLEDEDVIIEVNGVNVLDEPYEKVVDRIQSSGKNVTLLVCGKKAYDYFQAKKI

T10: SHANK1, Q9Y566
T10 sequence (Q9Y566 658-767, limits assumed, looked up): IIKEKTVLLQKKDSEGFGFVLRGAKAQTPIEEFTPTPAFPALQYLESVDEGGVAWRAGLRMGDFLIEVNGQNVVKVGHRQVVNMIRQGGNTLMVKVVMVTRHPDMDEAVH

T11: SIPA1L2, Q9P2F8
T11 sequence (Q9P2F8 945-1036, limits assumed, looked up): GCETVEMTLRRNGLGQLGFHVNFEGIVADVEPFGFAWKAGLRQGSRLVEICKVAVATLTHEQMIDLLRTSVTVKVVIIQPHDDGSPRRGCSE

T12: SNTB1, Q13884
T12 sequence (Q13884 107-205, limits assumed, looked up): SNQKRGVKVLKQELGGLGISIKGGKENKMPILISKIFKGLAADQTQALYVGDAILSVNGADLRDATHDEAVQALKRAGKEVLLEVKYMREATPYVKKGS


What was measured:
Assay in all cases: holdup assay
Set-up in all cases: key: below the threshold = too weak to quantify, mostly under pKd 3.1 to 4
Details in all cases: plain residues with an end cap or a label only (N-terminal biotin on a linker: ado-ado)
AHNAK1, Q09666 = target: AHNAK1, Q09666
Sequence of AHNAK1, Q09666 (Q09666 4-100): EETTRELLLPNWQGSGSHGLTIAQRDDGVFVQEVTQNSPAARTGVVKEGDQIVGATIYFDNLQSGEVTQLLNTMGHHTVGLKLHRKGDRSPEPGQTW

DFNB31_3, Q9P202 = target: T1, DFNB31_3, Q9P202
DLG3_2, Q92796 = target: T2, DLG3_2, Q92796
DVL3, Q92997 = target: T3, DVL3, Q92997
FRMPD2_3, Q68DX3 = target: FRMPD2_3, Q68DX3
Sequence of FRMPD2_3, Q68DX3 (Q68DX3 1073-1166): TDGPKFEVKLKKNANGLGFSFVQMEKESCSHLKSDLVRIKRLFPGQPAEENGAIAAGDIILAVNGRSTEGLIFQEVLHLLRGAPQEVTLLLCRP

FRMPD4, Q14CM0 = target: FRMPD4, Q14CM0
Sequence of FRMPD4, Q14CM0 (Q14CM0 67-160): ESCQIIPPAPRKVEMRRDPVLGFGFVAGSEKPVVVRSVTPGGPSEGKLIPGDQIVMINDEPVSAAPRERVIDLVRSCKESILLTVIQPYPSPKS

GORASP1, Q9BQQ3 = target: GORASP1, Q9BQQ3
Sequence of GORASP1, Q9BQQ3 (Q9BQQ3 1-208): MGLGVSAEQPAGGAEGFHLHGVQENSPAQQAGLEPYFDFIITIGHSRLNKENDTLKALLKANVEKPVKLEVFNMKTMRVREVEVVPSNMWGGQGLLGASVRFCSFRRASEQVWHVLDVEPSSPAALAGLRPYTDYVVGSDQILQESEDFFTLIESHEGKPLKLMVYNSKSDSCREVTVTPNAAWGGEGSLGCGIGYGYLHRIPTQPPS

GORASP2, Q9H8Y8 = target: GORASP2, Q9H8Y8
GRID2IP_1, A4D2P6 = target: GRID2IP_1, A4D2P6
Sequence of GRID2IP_1, A4D2P6 (A4D2P6 1-87): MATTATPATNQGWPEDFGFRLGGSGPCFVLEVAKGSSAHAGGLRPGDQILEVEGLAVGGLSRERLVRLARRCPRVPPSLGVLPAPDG

GRIP1_5, Q9Y3R0 = target: T4, GRIP1_5, Q9Y3R0
GRIP2_3, Q9C0E4 = target: GRIP2_3, Q9C0E4
Sequence of GRIP2_3, Q9C0E4 (Q9C0E4 238-339): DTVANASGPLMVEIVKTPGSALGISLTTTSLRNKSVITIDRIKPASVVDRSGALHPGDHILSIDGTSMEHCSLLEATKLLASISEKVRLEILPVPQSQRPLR

Inadl_2, Q8NI35 = target: Inadl_2, Q8NI35
Sequence of Inadl_2, Q8NI35 (Q8NI35 238-335): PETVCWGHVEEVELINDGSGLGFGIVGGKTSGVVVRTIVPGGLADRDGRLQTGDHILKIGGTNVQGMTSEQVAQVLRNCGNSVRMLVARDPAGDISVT

LIN7C, Q9NUP9 = target: T5, LIN7C, Q9NUP9
LNX1_2, Q8TBB1 = target: LNX1_2, Q8TBB1
Sequence of LNX1_2, Q8TBB1 (Q8TBB1 371-470): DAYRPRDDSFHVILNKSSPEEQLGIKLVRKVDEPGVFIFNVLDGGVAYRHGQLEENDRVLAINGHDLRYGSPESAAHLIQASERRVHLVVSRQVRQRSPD

LNX2_2, Q8N448 = target: T6, LNX2_2, Q8N448
MAGI3_2, Q5TCQ9 = target: MAGI3_2, Q5TCQ9
Sequence of MAGI3_2, Q5TCQ9 (Q5TCQ9 398-503): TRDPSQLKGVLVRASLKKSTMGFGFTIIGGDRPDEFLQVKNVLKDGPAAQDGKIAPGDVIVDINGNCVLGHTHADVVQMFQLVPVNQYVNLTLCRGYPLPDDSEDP

MPDZ_5, O75970 = target: T7, MPDZ_5, O75970
NHERF3_3, Q5T2W1 = target: T8, NHERF3_3, Q5T2W1
NHERF3_4, Q5T2W1 = target: T9, NHERF3_4, Q5T2W1
PICK1, Q9NRD5 = target: PICK1, Q9NRD5
Sequence of PICK1, Q9NRD5 (Q9NRD5 17-115): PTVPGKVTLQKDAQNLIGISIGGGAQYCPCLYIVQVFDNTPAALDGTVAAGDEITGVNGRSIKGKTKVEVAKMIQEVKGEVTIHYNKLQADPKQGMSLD

SCRIB_2, Q14160 = target: SCRIB_2, Q14160
Sequence of SCRIB_2, Q14160 (Q14160 857-960): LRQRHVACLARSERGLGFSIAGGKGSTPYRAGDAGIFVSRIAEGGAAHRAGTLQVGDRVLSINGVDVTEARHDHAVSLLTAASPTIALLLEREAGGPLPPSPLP

SHANK1, Q9Y566 = target: T10, SHANK1, Q9Y566
SIPA1L2, Q9P2F8 = target: T11, SIPA1L2, Q9P2F8
SNTB1, Q13884 = target: T12, SNTB1, Q13884
TJP1_2, Q07157 = target: TJP1_2, Q07157
Sequence of TJP1_2, Q07157 (Q07157 181-274): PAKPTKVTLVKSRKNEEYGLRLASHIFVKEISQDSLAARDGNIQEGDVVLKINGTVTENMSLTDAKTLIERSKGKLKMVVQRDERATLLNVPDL

Row | Binder | pKd (AHNAK1, Q09666) | pKd (DFNB31_3, Q9P202) | pKd (DLG3_2, Q92796) | pKd (DVL3, Q92997) | pKd (FRMPD2_3, Q68DX3) | pKd (FRMPD4, Q14CM0) | pKd (GORASP1, Q9BQQ3) | pKd (GORASP2, Q9H8Y8) | pKd (GRID2IP_1, A4D2P6) | pKd (GRIP1_5, Q9Y3R0) | pKd (GRIP2_3, Q9C0E4) | pKd (Inadl_2, Q8NI35) | pKd (LIN7C, Q9NUP9) | pKd (LNX1_2, Q8TBB1) | pKd (LNX2_2, Q8N448) | pKd (MAGI3_2, Q5TCQ9) | pKd (MPDZ_5, O75970) | pKd (NHERF3_3, Q5T2W1) | pKd (NHERF3_4, Q5T2W1) | pKd (PICK1, Q9NRD5) | other results
1 | ELSATVTTDC [TRIP6, Q15654] | below the threshold | 3.62 | 4.23 | below the threshold | below the threshold | below the threshold | below the threshold | below the threshold | below the threshold | below the threshold | below the threshold | below the threshold | below the threshold | 3.88 | 3.76 | below the threshold | below the threshold | 3.87 | below the threshold | 3.8 | pKd (SCRIB_2, Q14160): below the threshold; pKd (SHANK1, Q9Y566): 3.63; pKd (SIPA1L2, Q9P2F8): below the threshold; pKd (SNTB1, Q13884): 4.34; pKd (TJP1_2, Q07157): 4.06
2 | PPGKHLVTEV [KCNA7, Q96RP8] | below the threshold | 4.01 | 5.19 | below the threshold | below the threshold | below the threshold | below the threshold | 4.39 | below the threshold | below the threshold | below the threshold | below the threshold | below the threshold | 3.53 | 4.91 | 4.71 | below the threshold | below the threshold | below the threshold | below the threshold | pKd (SCRIB_2, Q14160): 4.08; pKd (SHANK1, Q9Y566): 3.71; pKd (SIPA1L2, Q9P2F8): below the threshold; pKd (SNTB1, Q13884): 4.32; pKd (TJP1_2, Q07157): below the threshold
3 | SPDRDRESIV [SCN5A, Q14524] | below the threshold | 4.06 | 4.57 | below the threshold | 3.48 | below the threshold | 3.71 | 3.88 | below the threshold | below the threshold | below the threshold | below the threshold | 4.12 | below the threshold | 4.44 | 4.9 | below the threshold | below the threshold | below the threshold | 4.21 | pKd (SCRIB_2, Q14160): below the threshold; pKd (SHANK1, Q9Y566): below the threshold; pKd (SIPA1L2, Q9P2F8): below the threshold; pKd (SNTB1, Q13884): 5.66; pKd (TJP1_2, Q07157): 3.49
4 | DDASLPVSDV [PLEKHA1, Q9HB21] | below the threshold | 4.54 | below the threshold | below the threshold | below the threshold | below the threshold | below the threshold | below the threshold | below the threshold | below the threshold | below the threshold | below the threshold | 4.01 | below the threshold | below the threshold | below the threshold | below the threshold | below the threshold | below the threshold | below the threshold | pKd (SCRIB_2, Q14160): below the threshold; pKd (SHANK1, Q9Y566): below the threshold; pKd (SIPA1L2, Q9P2F8): below the threshold; pKd (SNTB1, Q13884): 4.59; pKd (TJP1_2, Q07157): below the threshold
